Patent US12552837B2, “Bicyclic peptide ligands with detectable moieties and uses thereof” (BicycleRD Limited, priority 2017, dated 2026)
*1 amine or outer side, *2 acyl side, *3 side chain or, on linkers, in order; H or OH if unused. Where a SMILES comes first, the peptide text is derived from it. Bridges are numbered along the chain shown (N, C = ends). [ ]: non-standard residue; d: D form. The star is where a group is joined. DOTA = O=C(O)CN1CCN(CC(=O)O)CCN(CC(=O)*)CCN(CC(=O)O)CC1; 1Nal = N[C@@H](Cc1cccc2ccccc12)C(=O)O; TBMB = c1c(C[*:1])cc(C[*:3])cc1C[*:2]; Tle = CC(C)(C)[C@H](N)C(=O)O

Key:
[1] = Organ distribution of 177Lu-labelled peptides in HT1080 xenograft mice; format: in vivo, BALB/c nu/nu mice; conditions: male, BALB/c nu/nu, mouse, HT1080 tumor, iv, total radioactivity; for tissue uptake at 1 h: 1 h p.i.
Method: (§1) General procedure for radiolabelling with Lu-177.
(§2) • 50 μL 0.25 M Na-Acetate buffer pH 5.2+0.1% Tween 20; • 10 μL [Lu-177]LuCl3 in 0.05 M HCl; and • 2 μL of the diluted peptide (2 nmols). […]
(§3) Organ distribution studies, general method: For organ distribution, the respective dose is prepared by dilution of the labeling reaction mixture in injection buffer (0.25 M Na-Acetate pH 7+0.05% Tween20). The ^177Lu-radiolabeled peptide was injected via the tail vein of the nu/nu mice (50 kBq per mouse), transplanted with the respective cell line. At indicated time points after injection the animals were sacrificed. Blood, heart, lung, spleen, liver, kidney, muscle, brain, femur, and the tumor were dissected, blotted dry, and weighed. The radioactivity was measured with a γ-counter (CobraII; Canberra Packard) along with a sample of the injection solution to calculate the percentage injected dose per gram of tissue (% ID/g).
(§4) The γ- and β-emitter ^177LuCl3 (NEZ307D, Perkin Elmer, in 0.04 M HCl), with a t1/2 of 6.7 days was used for both in vivo biodistribution and internalization studies. Labeling reactions were performed by adding 10 μL ^177LuCl3 (˜10 MBq) in 50 mM HCl, 2 μL of the diluted peptide (1 mM solution in 50 mM HEPES buffer pH 7+0.1% Tween 20 diluted from a 10 mM DMSO stock) to 50 μL 50 mM HEPES buffer pH 7 supplemented with 0.1% Tween 20. The reaction mixture was incubated at 98° C. for 10 minutes. The radiochemical yield (RCY) was determined using high performance liquid chromatography (HPLC) system equipped with a Latek P402 (Latek, Eppelheim, Germany), a HITACHI variable UV detector (absorbance was measured at 214 and 254 nm) and a gamma detector (Bioscan, WA, USA), using a Chromolith RP-18 column (100×4.6 mm; Merck). The analytical HPLC run was performed at 4 mL/min, using a linear A (0.1% trifluoroacetic acid (TFA) in water) to B (0.1% TFA in acetonitrile) gradient (0% B to 100% B in 6 min). Thin-layer chromatography was performed in parallel to confirm the results of the radio-HPLC. The RCY was generally >95%, and thus, the output of labelling reactions was directly diluted with the appropriate buffer and further unlabeled peptide if required, to use in subsequent experiments.
(§5) 5×10^6 cells of HT1080 were subcutaneously inoculated into the right trunk of male 6-week-old BALB/c nu/nu mice (Charles River Laboratories). The tumors were grown for approximately 1 week, to a maximum size of ˜200 mm^3. Respective doses were prepared by mixing a fixed quantity of 5 pmoles ^177Lu labelled peptides (at approx. 50 kBq) with different quantities of non-labelled peptide (derived from 1 mM stock solution in 0.25 M sodium acetate pH 7+0.05% Tween20) in 100 μL injection buffer (0.25 M sodium acetate pH 7+0.05% Tween20). 3 animals were used per dose and timepoint. Radiolabelled peptide solutions were injected via the tail vein, followed by sacrifice at various time points. Organs of interest (blood, heart, lung, spleen, liver, kidney, muscle, small intestine, brain, HT1080 tumor) were dissected, blotted dry, and weighed. The radioactivity was measured using a gamma counter and calculated as % ID/g.

[2] = tested on: HT1080 tumor; assay: as above; format: in vivo, BALB/c nu/nu mice; conditions: 1 h post injection
Method: as §1, §2, §3, §4, §5

`C[C@H](NC(=O)CN1CCN(CC(=O)O)CCN(CC(=O)O)CCN(CC(=O)O)CC1)C(=O)N[C@H]1CSCc2cc3cc(c2)CSC[C@H](NC(=O)[C@@H](C)NC(=O)[C@H](Cc2cccc4ccccc24)NC(=O)[C@H](CCC(=O)O)NC(=O)[C@H](CC(N)=O)NC(=O)[C@@H](C)NC1=O)C(=O)N[C@@H](CCC(=O)O)C(=O)N[C@@H](CC(=O)O)C(=O)N[C@@H](Cc1ccccc1)C(=O)N[C@@H](Cc1ccc(O)cc1)C(=O)N[C@@H](CC(=O)O)C(=O)N[C@@H](C(C)(C)C)C(=O)N[C@H](C(N)=O)CSC3` [I-23] ({DOTA}-AC[dA]NE[1Nal][dA]CEDFYD[Tle]C-NH2; linker 2-8-15 via TBMB) gave a tissue uptake at 1 h ([1]; 50 kBq per mouse) of 12 ± 2.37 %ID/g, a tissue uptake at 24 h ([1]; 50 kBq per mouse, 24 h p.i.) of 1.54 ± 0.06 %ID/g and a tissue uptake at 1 h [1] of 12.4 %ID/g. The “blocking of tumor uptake at a dose of 500 pmoles” value [2] was “slightly blocked”, the “blocking of tumor uptake using 5 nmoles” value [2] was “nearly completely blocked” and the “tumor uptake compared to 17-69-07-N144” value [2] was “significantly higher tumor uptake”.
